The record followed here is patent US20110189730 (published 2011).

Series [1] has as its target T1, Sin Nombre hantavirus nucleocapsid protein (N) (Sin Nombre hantavirus) (UniProt Q89462).
T1 sequence: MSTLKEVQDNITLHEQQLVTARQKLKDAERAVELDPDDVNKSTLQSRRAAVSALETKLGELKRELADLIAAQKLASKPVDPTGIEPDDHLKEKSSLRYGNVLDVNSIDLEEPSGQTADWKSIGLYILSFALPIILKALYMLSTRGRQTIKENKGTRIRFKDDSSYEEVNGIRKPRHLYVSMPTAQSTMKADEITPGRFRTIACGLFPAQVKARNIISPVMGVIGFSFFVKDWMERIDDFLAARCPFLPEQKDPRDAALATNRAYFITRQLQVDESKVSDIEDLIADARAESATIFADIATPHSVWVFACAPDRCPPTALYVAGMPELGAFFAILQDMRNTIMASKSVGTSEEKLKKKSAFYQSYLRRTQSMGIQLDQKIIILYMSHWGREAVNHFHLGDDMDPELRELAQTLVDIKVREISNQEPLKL
The series can be described thus: filter. The conditions noted are these: 5' m7G cap.

The target in series [2] is T2, Sin Nombre hantavirus nucleocapsid protein (N) (Sin Nombre hantavirus, UniProt Q89462 SEQ:1-428).
T2 sequence: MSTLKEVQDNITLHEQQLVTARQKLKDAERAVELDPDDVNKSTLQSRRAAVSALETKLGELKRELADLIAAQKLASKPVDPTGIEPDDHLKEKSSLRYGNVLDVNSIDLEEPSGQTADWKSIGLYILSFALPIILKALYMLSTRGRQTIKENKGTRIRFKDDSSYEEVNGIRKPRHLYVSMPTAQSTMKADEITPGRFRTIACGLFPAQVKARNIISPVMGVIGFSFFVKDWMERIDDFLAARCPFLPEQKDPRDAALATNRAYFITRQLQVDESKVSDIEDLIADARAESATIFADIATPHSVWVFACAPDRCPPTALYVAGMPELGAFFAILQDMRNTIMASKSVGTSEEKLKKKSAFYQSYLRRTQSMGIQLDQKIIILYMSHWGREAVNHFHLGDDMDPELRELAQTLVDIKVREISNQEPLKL
Put plainly: filter. The conditions noted are these: tags: C-terminal octahistidine tag, expressed in E. coli; label: 32P-CTP.

A word on the Kd: it is the free concentration of one partner at which half of the binding sites on the other are occupied at equilibrium, for simple one-to-one binding. A low value points to tighter binding. On to capped TriEx 5'-terminal decamer, for which the Kd in series [1] worked out at 130 nM.
GUCUCUCCCA (ssRNA, 5' m7G cap) [m7… capped decamer]: in series [2], the Kd is roughly 130 nM.
GUCUCC (ssRNA, 5' m7G cap) [m7GUCUCC capped hexamer]: binding in series [2] was put at a Kd of 125 nM.
